Legend:
[1] = target: Chicken skeletal muscle α-actin (F-actin, unlabeled) (chicken) (UniProt P68139); experiment: co-sedimentation; increasing tropomyosin (0-10 µM) mixed with 5 µM actin in F-buffer (2 mM HEPES, pH 7.6, 40 mM NaCl, 5 mM MgCl2) at 22°C, ultracentrifuged; supernatants and pellets on SDS-PAGE; apparent constants (Kapp)
[2] = target: Chicken skeletal muscle α-actin (F-actin, unlabeled) (chicken) (UniProt P68139)
[3] = target: Chicken skeletal muscle α-actin labeled with DABMI at Cys374 (chicken) (UniProt P68139)

Substance: Ala232Cys-TM1b9a labeled with AEDANS
- Ka [1]: 1.24e+07 M⁻¹

Substance: Chicken skeletal myosin subfragment 1 (S1) (domain or fragment)
- Actin–myosin S1 ATPase activity in the presence of TM1b9a/A232C; 0.8 µM S1, 9.2 µM F-actin, 1.2 µM tropomyosin (nmol Pi/mg S1/min) [2]: 126
- Actin–myosin S1 ATPase activity in the presence of TM1b9a; 0.8 µM S1, 9.2 µM F-actin, 1.2 µM tropomyosin (nmol Pi/mg S1/min) [2]: 108
- Actin–myosin S1 ATPase activity in the presence of TM2/S269C; 0.8 µM S1, 9.2 µM F-actin, 1.2 µM tropomyosin (nmol Pi/mg S1/min) [2]: 112
- Actin–myosin S1 ATPase activity in the presence of TM2; 0.8 µM S1, 9.2 µM F-actin, 1.2 µM tropomyosin (nmol Pi/mg S1/min) [2]: 91.7
- Actin–myosin S1 ATPase activity in the presence of TM5a/S232C; 0.8 µM S1, 9.2 µM F-actin, 1.2 µM tropomyosin (nmol Pi/mg S1/min) [2]: 184
- Actin–myosin S1 ATPase activity in the presence of TM5a; 0.8 µM S1, 9.2 µM F-actin, 1.2 µM tropomyosin (nmol Pi/mg S1/min) [2]: 169
- Actin–myosin S1 ATPase activity in the presence of skTM/A269C; 0.8 µM S1, 9.2 µM F-actin, 1.2 µM tropomyosin (nmol Pi/mg S1/min) [2]: 104
- Actin–myosin S1 ATPase activity in the presence of skTM; 0.8 µM S1, 9.2 µM F-actin, 1.2 µM tropomyosin (nmol Pi/mg S1/min) [2]: 103
- S1/actin molar ratio of strongly bound myosin heads required for half-maximal change in FRET between AEDANS-TM1b9a/A232C and DABMI-actin (S1/actin molar ratio) [3]: 0.14
- S1/actin molar ratio of strongly bound myosin heads required for half-maximal change in FRET between AEDANS-TM2/S269C and DABMI-actin (S1/actin molar ratio) [3]: 0.12
- S1/actin molar ratio of strongly bound myosin heads required for half-maximal change in FRET between AEDANS-TM5a/S232C and DABMI-actin (S1/actin molar ratio) [3]: 0.08
- S1/actin molar ratio of strongly bound myosin heads required for half-maximal change in FRET between AEDANS-skTM/A269C and DABMI-actin (S1/actin molar ratio) [3]: 0.15

Substance: Chimeric rat α-tropomyosin TM1b9a
- Ka [1]: 1.27e+07 M⁻¹

Substance: Recombinant rat non-muscle α-tropomyosin isoform TM2 (natural protein)
- Ka [1]: 2.25e+07 M⁻¹

Substance: Recombinant rat non-muscle α-tropomyosin isoform TM5a (natural protein)
- Ka [1]: 1.42e+07 M⁻¹

Substance: Ser232Cys-TM5a labeled with AEDANS (natural protein)
- Ka [1]: 1.49e+07 M⁻¹

Substance: Ser269Cys-TM2 labeled with AEDANS (natural protein)
- Ka [1]: 2.04e+07 M⁻¹
